Test results reported in patent US20220235134A1 (SINGLE CELL TECHNOLOGY, published 2022).
Changes are numbered by the printed parent chain.

T1: B7-H3, native protein on the cell surface of A498 and SK-MES-1 cells (UniProt Q5ZPR3 29-534, limits assumed)
T1 sequence (looked up): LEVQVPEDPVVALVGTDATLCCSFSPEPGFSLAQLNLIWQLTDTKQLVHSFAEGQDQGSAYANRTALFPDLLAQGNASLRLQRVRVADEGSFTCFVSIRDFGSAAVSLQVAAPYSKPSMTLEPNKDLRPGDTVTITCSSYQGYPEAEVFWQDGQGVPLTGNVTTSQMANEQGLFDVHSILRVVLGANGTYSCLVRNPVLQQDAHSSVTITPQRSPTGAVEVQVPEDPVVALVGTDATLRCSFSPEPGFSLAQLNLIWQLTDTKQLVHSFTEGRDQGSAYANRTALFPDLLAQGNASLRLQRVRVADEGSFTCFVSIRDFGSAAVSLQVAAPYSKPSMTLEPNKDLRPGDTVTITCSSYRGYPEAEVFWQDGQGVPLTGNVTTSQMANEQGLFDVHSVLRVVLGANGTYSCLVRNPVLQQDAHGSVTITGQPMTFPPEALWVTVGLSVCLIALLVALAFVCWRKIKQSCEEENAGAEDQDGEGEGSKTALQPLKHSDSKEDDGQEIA

T2: Recombinant human B7-H3 (human, UniProt Q5ZPR3 29-466, limits assumed)
T2 construct: also called CD276; B7RP-2
T2 sequence: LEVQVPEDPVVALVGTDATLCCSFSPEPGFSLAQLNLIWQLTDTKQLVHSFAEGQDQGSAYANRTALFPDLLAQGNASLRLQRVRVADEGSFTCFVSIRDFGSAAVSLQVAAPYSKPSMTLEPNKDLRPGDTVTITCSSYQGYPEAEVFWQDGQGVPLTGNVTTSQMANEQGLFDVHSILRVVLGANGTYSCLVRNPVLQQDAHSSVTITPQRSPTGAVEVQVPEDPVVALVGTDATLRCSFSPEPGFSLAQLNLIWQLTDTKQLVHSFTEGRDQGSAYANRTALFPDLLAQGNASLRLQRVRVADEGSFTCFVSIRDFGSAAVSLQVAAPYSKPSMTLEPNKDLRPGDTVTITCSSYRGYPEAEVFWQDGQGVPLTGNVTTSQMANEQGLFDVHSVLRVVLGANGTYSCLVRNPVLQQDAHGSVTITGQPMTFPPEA

B1: SCT-Da182 (antibody, V domains shown)
VH: EVQLQQSGPELVKPGASMKISCKVSGFSFTGYTMNWVKQSHGKNLEWIGLINTYNGGTFYNQKFKAKATLTVDKSSSTAHMELLSLTSEDSAVYYCARSPGRYSMDYWGQGTSVTVSS
VL: DIVLTQSPASLAVSLGQRATISCKASQSVDYNGYSYLNWYQQKPGQPPKLLIYPASNLESGIPARFSGSGSGTDFTLNIHPVEEEDAATYYCQQSKEDPYTFGGGTKLEIK
B2: SCT-Da148 (antibody, V domains shown)
VH: EVQLQQSGAELVKPGASVKLSCTASGVNIKDTYIHWVKQRPEQGLEWIGRIDPANGNRKYDPKFQGKATITADSSSNTAYLQLSSLTSEDTAVYYCARDGYYAPGYWGQGTTLTVSS
VL: DIVMTQSQKFMSTSVGDRVSVTCKASQNVGTDVAWYQQKPGQSPKLLIYSASYRFSGVPDRFTGSGSGTDFSLAISNVQSEDLAEYFCQQYNSYPYTFGGGAKLEIK
B3: SCT-Da333 (antibody, V domains shown)
VH: QVQLQQSGPELVRPGVSVKISCKGSGYTFTDYAVHWVKQSHAKSLEWIGVINTYSGNTYYNLHFKGKATMTVDKSSSTAYMELARLTSEDSAIYYCARRRGSHRDAYFDYWGQGTTLTVSS
VL: DIVMTQSHKFMSTSVGDRVSITCRASQDVSTAVAWYQQKPGQSPKLLIYSASYRYTGVPDRFTVSGSGTDFTFTISSVQAEDLAVYYCQQHYSTPWTFGGGTKLEIK
B4: SCT-Da250 (antibody, V domains shown)
VH: QGQMQQSGAELVKPGASVRLSCKTSGFTFSSFYISWLKQKPGQSLEWIAWIYAGPGYTSYNQKFTGKAQLTVDTSSSTAYMQFSSLTTEDSAIYYCARHVGRQRGYFDVWGAGTTVTVSS
VL: B3 VL with R24K, R61H
B5: SCT-Da192 (antibody, V domains shown)
VH: EVQLQQSGPELVKPGASVKISCKTSGYTFTEYTMHWVKQSHGKSLEWIGVINPNNGGTTYNQKFKGKATLTVDKSSSTAYMELRSLTSEDSAVYYCARPHSLLRLRREFDYWGQGTTLTVSS
VL: QIVLTQSPALMSASPGEKVTMTCSASSSVSYMYWYQQKPRSSPKPWIYLTSNLASGVPARFSGSGSGTSYSLTISSMEAEDAATYYCQQWSSNPLTFGAGTKLELK

Key:
[1] = molecular target: T1, B7-H3, native protein on the cell …; assay: cell-based or functional assay
Recombinant cyno B7-H3 [2] = molecular target: Recombinant cyno B7-H3 (cyno); assay: ELISA, cyno B7-H3 coated on plate
Experimental: (§1) The recombinantly expressed antibodies were used to assess binding activity to B7-H3 by conventional ELISA according to the known art. Recombinant human B7-H3 and cyno B7-H3 were coated onto ELISA plates to detect binding at serially diluted concentrations of the anti-B7-H3 antibody preparations. The binding affinity of select anti-B7-H3 antibodies were measured on a surface plasmon resonance (SPR) instrument, such as a Biacore T200™, against human B7-H3 (table 3) and cyno B7-H3 (table 4). Cell lines expressing B7-H3, A498 and SK-MES-1, were used to assess binding by anti-B7-H3 antibodies on the native protein on the cell surface by flow cytometry according to the known art. […] In addition, the antibody-dependent cellular cytotoxicity (ADCC) activity of select anti-B7-H3 antibodies were assessed using an engineered surrogate effector cell line, kit reagents, and a luminometer (Promega, Madison, Wis.) on A498 and SK-MES-1 as target cells in table 2 under the heading “ADCC (reporter) and FIGS. 1C and 1D. Finally, specificity of each of the antibodies examined thus far were assessed by interacting with proteins from the B7 family (human B7-1, B7-2, PD-L2, PD-L1, B7-H2, B7-H4, B7-H5, B7-H6, B7-H7) against B7-H3 using ELISA. The data were plotted for each antibody on FIGS. 3A through 3E.

[3] = molecular target: T1, B7-H3, native protein on the cell …; assay: flow cytometry (FACS) on A498 cells
Experimental: as §1

[4] = molecular target: T1, B7-H3, native protein on the cell …; assay: flow cytometry (FACS) on SK-MES-1 cells
Experimental: as §1

Recombinant human B7-H3 [5] = molecular target: T2, Recombinant human B7-H3; assay: ELISA, recombinant human B7-H3 coated on plate
Experimental: as §1

Recombinant cyno B7-H3 [6] = molecular target: Recombinant cyno B7-H3 (cyno); assay: SPR (such as Biacore T200), against cyno B7-H3
Experimental: as §1

Recombinant human B7-H3 [7] = molecular target: T2, Recombinant human B7-H3; assay: SPR (such as Biacore T200), against human B7-H3
Experimental: as §1

Binder | ADCC (reporter) EC50, A498 target cells [1] [nM] | ADCC (reporter) EC50, SK-MES-1 target cells [1] [nM] | EC50 (Recombinant cyno B7-H3 [2]) [nM] | EC50 [3] [nM] | EC50 [4] [nM] | EC50 (Recombinant human B7-H3 [5]) [nM] | Kd (Recombinant cyno B7-H3 [6]) [nM] | koff (Recombinant cyno B7-H3 [6]) [s⁻¹] | kon (Recombinant cyno B7-H3 [6]) [M⁻¹ s⁻¹] | Kd (Recombinant human B7-H3 [7]) [nM] | koff (Recombinant human B7-H3 [7]) [s⁻¹] | kon (Recombinant human B7-H3 [7]) [M⁻¹ s⁻¹]
B1 | 4.5 | 4.6 | 0.00882 | 3.7 | 4.09 | 0.0105 | 1.22 | 0.000283 | 232000 | 10.9 | 0.00101 | 92700
B2 | 3.6 | 4.2 | 0.0114 | 1.6 | 1.49 | 0.0076 | 0.503 | 0.000368 | 731000 | 6.41 | 0.00234 | 366000
B3 | 23.3 | 32.8 | 3.05 | 3.29 | 1.94 | 0.00833 |  |  |  | 380 | 0.0512 | 135000
B4 | 2.4 | 2.4 | 0.0237 | 1.43 | 1.46 | 0.0226 | 0.398 | 0.000361 | 905000 | 2.75 | 0.0011 | 402000
B5 | 1.1 | 0.9 | 0.0176 | 2.62 | 2.32 | 0.0109 | 1.64 | 0.000505 | 307000 | 23.8 | 0.00203 | 85100
